Numbering of substitutions follows the chain as printed.

Experimental findings from patent US20240084005A1 (ALLAKOS, published 2024) are described below.

One experiment deals with T1, Siglec-6 ECD Fc protein (human, UniProt O43699 27-347).
T1 construct: also called Siglec-6 full ECD fused to a human Fc; not shown: human Fc
As to the kind of experiment: BLI (Octet Red 384), bivalent IgG on immobilized Siglec-6 ECD Fc. As for the experimental part: Bivalent binding affinities of IgG for Siglec-6 mAbs were measured by biolayer interferometry using a FortéBio Octet Red 384 instrument using immobilized Siglec-6 ECD Fc protein.
Background: BLI is a label-free optical method that tracks binding on a fibre tip over time.

Experiment [1] concerns the target Siglec-6 (antigen of Example 8) (human, UniProt O43699 27-347, limits assumed). Put plainly: BLI, monovalent Fab.

T1 sequence (O43699 27-347): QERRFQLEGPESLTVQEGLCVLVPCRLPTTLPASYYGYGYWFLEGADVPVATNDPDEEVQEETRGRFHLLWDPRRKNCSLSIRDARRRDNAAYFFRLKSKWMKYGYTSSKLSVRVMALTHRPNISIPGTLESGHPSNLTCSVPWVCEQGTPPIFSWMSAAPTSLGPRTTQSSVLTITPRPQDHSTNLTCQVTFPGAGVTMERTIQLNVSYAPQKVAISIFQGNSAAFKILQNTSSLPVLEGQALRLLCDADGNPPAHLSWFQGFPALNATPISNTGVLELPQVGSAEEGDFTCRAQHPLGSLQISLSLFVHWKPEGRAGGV
Chain of Siglec-6 (antigen of Example 8) (O43699 27-347 limits assumed): as the sequence (O43699 27-347) above

As for R&D MAB2859 (antibody), the Kd with Siglec-6 ECD Fc protein is 9 pM.

B1: AK04 (antibody, V domains shown)
VH: QVQLKESGPGLVAPSQSLSITCTVSGFSLTSYGVSWVRKPPGKGLEWLGVIWHDGSTSYHSTLISRLNISRDNSKSQVFLKLNSLQTDDTATYYCASDGYSGTFAYWGQGTLVTVSA
VL: QIVVTQSPAIMSASLGERVTMTCTASSSVSSSYLHWYQQKPGSSPKLWIYSTSILASGVPARFSGSGSGTSYSLTVSSMEAEDAATYYCHQYHRSPYTFGGGSKLEIR
notes: also called anti-Siglec-6 mAb AK04; AK04 IgG1
B1 had a Kd with Siglec-6 ECD Fc protein of 1 pM.

B2: AK04 Reference Fab (Fab, V domains shown)
VH: B1 VH
VL: B1 VL
As for B2, in experiment [1], the Kd was found to be 0.075 nM, the off-rate constant (koff) was 6.5e-05 s⁻¹ and the on-rate (kon) turned out to be 860000 M⁻¹ s⁻¹.

B3: AK03 (antibody, V domains shown)
VH: EVQLQQSGTVLARPGASVKMSCKTSGYTFTSYWMHWVKQRPGQGLEWIGTIYPGNSDSTYNQKFKGKAKLTAVTSASTAYMEVSSLTNEDSAVYYCSREGTVVANYYGLDYWGQGTSVTVSS
VL: QIVLSQSPAILSASPGEKVTMTCRASSSVSYIHWYQQKPGSSPKPWIYATSNLASGVPARFSGSGSGTSYSLTISRVEAEDAATYYCQQWSSKPPTFGAGTKLELK
notes: also called anti-Siglec-6 mAb AK03
As for B3, in the experiment with Siglec-6 ECD Fc protein, the Kd is 1 pM.

B4: AK02 (antibody, V domains shown)
VH: QVQLQQPGAELVKPGASVKLSCKASGYTFTNYYIHWVKQRPGQGLEWIGMIHPISGSTNYNEKLKIKATLTVDKSSSTAYMQLSSLTSEDSAVYYCARRYYGSSYWYFDVWGTGTTVTVSS
VL: B3 VL with I32M, H33N, S69P, K93H, A99S, L105I
notes: also called anti-Siglec-6 mAb AK02
As for B4, the Kd in the experiment with Siglec-6 ECD Fc protein amounted to 7 pM.

B5: AK06 (antibody, V domains shown)
VH: EVPLVESGGGLVKPGGSLKLSCAASGFTFSDYGIHWVRQAPEKGLEWVAYITSVSSTIYYADTVKGRFTISRDNAKNTLFLQMTSLRSEDTAMYYCAILDWYFDVWGTGTTVTVSS
VL: QIVLTQSPAIMSASPGEKVTMTCSANSSVSFMHWFQQKSGTSPKRWIYDTSKLASGVPARFSASGSGTSYSLTISSMEAEDAATYYCQQWSSNPLTFGAGTKVELK
notes: also called anti-Siglec-6 mAb AK06
For B5, in the experiment with Siglec-6 ECD Fc protein, the Kd stood at 24 pM.

B6: AK07 (antibody, V domains shown)
VH: EVQLQQSGPELVKPGASVKMSCKASGYTFTDYKMHWVKQSHGKSLEWIGNINPNNGGTSYNQKFKGKATLTVNKSSSTAYMELRSLTSEDSAVYYCARRYYGSSSSYFDYWGQGTTLTVSS
VL: B5 VL with A25V, N26S, F31Y, F35Y, A63G, L95P, V103L
notes: also called anti-Siglec-6 mAb AK07
B6 returned a Kd with Siglec-6 ECD Fc protein of 69 pM.

B7: AK01 (antibody, V domains shown)
VH: QVQLKQSGPGLVQPSQSLSITCTVSGFSLTSYSVHWVRQSPGKGLEWLGVIWSGGSTDYNAVFISRLSISRDNSKSQVFFKMNSLQADDSAIYYCASYSYYTMDYWGQGTSVTVSS
VL: DVVMTQTPLSLPVSLGDQASISCRSSQSLVLDNGNTYLHWYLQKPGQSPKLLIYKVSNRFSGVPDRFTGSGSGTDFTLKINRVEAEDLGVYFCSQSTHVPFTFGSGTKLEIK
notes: also called anti-Siglec-6 mAb AK01
With B7, the Kd in the experiment with Siglec-6 ECD Fc protein worked out at 1 pM.

B8: AK05 (antibody, V domains shown)
VH: QVQLQQPGTELVKPGASVQLSCKASGYIFTSYWMYWVKQRPGQGLEWIGNVNPYSGDTNYNEKFKTKATLTVDKASSTAFIQLSGLTSEDSAVYFCARGDGLYYYAMDYWGQGTSVTVSS
VL: DIKMTQSPSSMYASLGERVTITCKASQDINSYLTWFQQKPGKSPKTLIYRASRLVDGVPSRFSGSGSGQDYSLTISSLEYEDMGIYYCLQYDEFPLTFGAGAKLELI
notes: also called anti-Siglec-6 mAb AK05
Consider B8, for which the Kd with Siglec-6 ECD Fc protein worked out at 55 pM.

The term koff denotes a measure of how fast the partners let go of each other. By kon is commonly meant the rate constant with which the complex forms.
